# According to US20230141962A1:
# B1: scFv clone #26 (scFv)
# scFv: QAVLTQAPSASGTLGQQVTISCSGTTSNIGRNTVNWYQHLPGTAPKLLIFVSNQRPSGVPDRFSGSKSGTSASLVISGLQSEDEADYYCGAWDDSLDGMLFGGGTKLTVLGSRGGGGSGGGGSGGGGSLEMAQVQLVQSGAEVKKPGASVKVSCKASGYTFTSYGISWVRQAPGQGLEWMGWISAYNGNTNYAQKLQGRVTMTTDTSTSTAYMELRSLRSDDTAVYYCARGYYGDLDPWGQGTLVTVSSTSGQAGQ
# How the values were obtained:
# [1] = biological target: SARS-CoV-2 S1 (D614G) (SARS-CoV-2), P0DTC2; details: remark: other sources report otherwise
# [2] = biological target: SARS-CoV-2 S1 Beta Variant (K417N, E484K, N501Y, D614G) (SARS-CoV-2), P0DTC2; details: remark: other sources report otherwise
binder,measurement,setting,value
B1,IC50,[1],1.4 nM
same,IC50,[2],2.27 nM
